Data on two molecules can be found in patent publication US20130034559A1 (AstraZeneca / MedImmune, published 2013).

Test [1] has as its target T1, human PD-1/Fc protein (R&D Systems, catalog #1086-PD) (human, UniProt Q15116 25-170).
T1 construct: extracellular domain; Bought; not shown: Fc portion
As to the kind of experiment: ELISA, biotinylated IgG1-TM on coated ECD. As for the experimental part:
(§1) ELISAs were performed to determine the cross-reactivity of the anti-B7-H1 IgG1-TM antibodies for other immune co-modulatory molecules. […] Murine cross reactivity was also investigated by coating the ECD of murine B7-H1 (R&D Systems, 1019-B7). Biotinylated anti-B7-H1 IgG1-TM diluted at 100 nM in PBS containing 3% dried milk powder, were incubated at room temperature for 2 h to allow binding. Bound biotinylated IgGs were detected with europium N1-labelled streptavidin (Perkin Elmer, 1244-360) at 0.2 ug/mL. […] Primary antibodies were incubated at 5 ug/mL in PBS containing 3% dried milk powder for 2 h at room temperature. Detection was carried out by incubating the secondary antibody anti-mouse IgG Peroxidase conjugate (Sigma, A2554) or anti-rat IgG Peroxidase conjugate (Sigma, A5795) diluted 1:5000 in PBS containing 3% dried milk powder for 1 h at room temperature and subsequent addition of TMB (Sigma, T0440). […] Non-specific binding was determined using wells coated with the IgG1 isotype control at 5 ug/mL. Cross reactivities were calculated at a percent of the specific binding to the antigen relative to human B7-H1.
Background: In an ELISA, binding on a coated surface is turned into a signal by an enzyme label.

Test [2] addresses T2, extracellular domain of human B7-H2 (R&D Systems, 165-B7) (human, UniProt O75144 19-256).
T2 construct: extracellular domain; Bought
T2 sequence (looked up): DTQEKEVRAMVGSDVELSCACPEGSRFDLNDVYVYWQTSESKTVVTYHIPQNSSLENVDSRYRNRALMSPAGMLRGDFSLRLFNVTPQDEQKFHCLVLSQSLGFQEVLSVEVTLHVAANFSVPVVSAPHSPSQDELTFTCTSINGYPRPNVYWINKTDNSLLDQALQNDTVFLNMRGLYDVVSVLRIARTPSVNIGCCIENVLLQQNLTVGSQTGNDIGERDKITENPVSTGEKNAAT
As to the kind of experiment: ELISA, biotinylated IgG1-TM on coated ECD. As to the method: as §1

In test [3] the target is T3, extracellular domain of human PD-L2 (R&D Systems, 1224-PL) (human, UniProt Q9BQ51 20-220).
T3 construct: extracellular domain; Bought
T3 sequence (looked up): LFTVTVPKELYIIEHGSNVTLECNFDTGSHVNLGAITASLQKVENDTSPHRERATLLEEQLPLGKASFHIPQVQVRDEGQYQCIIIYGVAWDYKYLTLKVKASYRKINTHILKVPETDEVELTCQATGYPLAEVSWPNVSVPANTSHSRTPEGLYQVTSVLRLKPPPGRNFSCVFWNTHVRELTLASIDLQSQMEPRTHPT
Put plainly: ELISA, biotinylated IgG1-TM on coated ECD. As for the experimental part:
as §1

Test [4] concerns the target T4, extracellular domain of human CD28 (R&D Systems, 342-CD) (human, UniProt P10747 19-152).
T4 construct: extracellular domain; Bought
Put plainly: ELISA, biotinylated IgG1-TM on coated ECD. As for the experimental part:
as §1

Test [5] addresses T5, extracellular domain of human CTLA-4 (R&D Systems, 325-CT) (human, UniProt P16410 36-161).
T5 construct: extracellular domain; Bought
T5 sequence (looked up): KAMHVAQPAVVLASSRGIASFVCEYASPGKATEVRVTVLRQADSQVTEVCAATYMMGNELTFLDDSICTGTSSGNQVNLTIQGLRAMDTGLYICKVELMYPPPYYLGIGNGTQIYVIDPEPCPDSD
Put plainly: ELISA, biotinylated IgG1-TM on coated ECD. As for the experimental part:
as §1

The target of test [6] is T6, extracellular domain of murine B7-H1 (R&D Systems, 1019-B7) (murine, UniProt Q9EP73 19-239).
T6 construct: extracellular domain; Bought
As to the kind of experiment: ELISA, biotinylated IgG1-TM on coated murine B7-H1 ECD. As for the experimental part:
as §1

Test [7] concerns the target T7, human B7-H1 expressed on cells (human, UniProt Q9NZQ7 19-290).
T7 construct: whole, on cells; also called PD-L1; huB7-H1
As to the kind of experiment: cell ELISA: biotinylated PD-1/Fc (1.25 ug/ml) on CHO-huB7-H1 cells after hybridoma supernatant (1:5); 0% = 100% inhibition. As to the method: 25000 cells/well were plated in 50 μl of media into wells of a 384-well tissue culture plate (Corning Costar, catalog #3712). Next day, 50 μl/well of diluted (1:5) hybridoma supernatant was added and plates were incubated at 4 C for 1 hour on a shaker. […] Cells were washed and fixed in 100 ul of PBS containing 3.7% formaldehyde and 3% bovine serum albumin for 20 min at room temperature. Cells were washed and incubated in 100 ul of PBS containing 0.6% H2O2 and 3% bovine serum albumin for 10 min at room temperature. Cells were washed and incubated in 50 μl of horseradish peroxidase-conjugated streptavidin diluted at 1:4000 for 30 min at 4° C. Cells were washed before signal detection.

The target in test [8] is T8, cynomolgus monkey B7-H1 expressed on cells (cynomolgus monkey, UniProt G7PSE7 19-290).
T8 construct: whole, on cells; also called cyno B7-H1; cynomologus B7-H1
Put plainly: FACS, 1 µg/ml antibody, anti-CD3-activated cynomolgus monkey T cells. As to the method:
For activation of cynomolgus monkey T cells 96-well high binding plates were incubated with 100 μl/well of goat anti-mouse IgG Fc antibody diluted at 1 ug/ml in PBS at 4 C overnight. […] Cynomolgus monkey PBMC were isolated from peripheral blood (Bioreclamation, catalog #CYNWBCPT). Anti-CD3 mAb coated plates were washed with PBS and isolated PBMC were added in 200 ul of ICM media at ˜200000 cells/well and cultured for 72 hours. Cells were then harvested, washed in FACS buffer and mixed with diluted purified anti-B7-H1 antibodies or irrelevant human IgG2 or IgG4 antibodies at a final concentration of 1 ug/ml in 96-well V-bottom assay plate (50 ul/well). […] Cells were incubated for 1 hour at 4° C. before being washed again with FACS buffer and being read on a FACSCalibur instrument. Monkey T lymphocyte population was selected for analysis based on forward and side scatter as well as positive staining for CD3 marker and negative staining for 7-AAD.
For orientation: A flow cytometer gives signals particle by particle.

Test [9] concerns the target T7, human B7-H1 expressed on cells. Put plainly: FMAT, hybridoma supernatant, 293T cells expressing human B7-H1. As for the experimental part:
(§2) Immediately after plating, 10 μl/well of hybridoma supernatants were added and plates incubated for 1.5 hr at room temperature.

Test [10] has as its target T8, cynomolgus monkey B7-H1 expressed on …. As to the kind of experiment: FMAT, hybridoma supernatant, 293T cells expressing cynomolgus monkey B7-H1. As to the method: as §2
Test [11] deals with T7, human B7-H1 expressed on cells. As to the kind of experiment: FACS, 1 µg/ml antibody, anti-CD3-activated human T cells. As to the method:
96-well high binding plates were incubated with 100 μl/well of anti-CD3 antibody diluted at 1 ug/ml in PBS (OKT3 clone, eBioscience, catalog #160037) at 4 C overnight. Human T cells were isolated from frozen leukopack using T cell enrichment kit (StemCell Technologies, catalog #19051). Anti-CD3 mAb coated plates were washed with PBS and purified T cells were added in 200 ul of ICM media at 360000 cells/well and cultured for 72 hours. T cells were then harvested, washed in FACS buffer and mixed with diluted purified anti-B7-H1 antibodies or irrelevant human IgG2 or IgG4 antibodies at final concentration of 1 ug/ml in 96-well V-bottom assay plate (50 ul/well). […] Cells were incubated for 30 min at 4° C. before being washed again with FACS buffer and being read on a FACSCalibur instrument. Live lymphocyte population was selected for analysis based on forward and side scatter as well as negative staining for 7-AAD.

Test [12] addresses T9, mouse B7-H1 on J558 cells (mouse, UniProt Q9EP73 19-290).
T9 construct: whole, on cells
As to the kind of experiment: FACS, 5 µg/ml antibody, J558 cells expressing mouse B7-H1. As for the experimental part: (§3) The ability of the purified antibodies to bind to human B7-H1, B7-DC, mouse B7H1 and cynomolgus monkey B7-H1 was determined by FACS analysis. […] Mouse J558 cells expressing mouse B7-H1 were obtained from ATCC (catalog #TIB-6). Cells were resuspended in PBS containing 2% FBS (FACS buffer) and seeded at 50000 cells/well into V-bottomed plates. Anti-B7-H1 and isotype control antibodies diluted in FACS buffer were added at a final concentration of 5 μg/ml and plates were incubated for 1 h at 4° C. […] Mouse anti-human B7-DC (PD-L2) antibody (R&D systems cat #MAB1224, detected with goat anti-mouse Fc Cy5, Jackson Immunoresearch) was used as a positive control for B7-DC expression. PE-conjugated rat anti-mouse B7-H1 antibody (eBioscience, clone M1H5, detected with goat anti-rat Fc Cy5, Jackson Immunoresearch) was used as a positive control for mouse B7-H1 expression.

The target in test [13] is T10, human B7-DC on 293T cells (human, UniProt Q9BQ51 20-273).
T10 construct: whole, on cells; also called PD-L2
T10 sequence (looked up): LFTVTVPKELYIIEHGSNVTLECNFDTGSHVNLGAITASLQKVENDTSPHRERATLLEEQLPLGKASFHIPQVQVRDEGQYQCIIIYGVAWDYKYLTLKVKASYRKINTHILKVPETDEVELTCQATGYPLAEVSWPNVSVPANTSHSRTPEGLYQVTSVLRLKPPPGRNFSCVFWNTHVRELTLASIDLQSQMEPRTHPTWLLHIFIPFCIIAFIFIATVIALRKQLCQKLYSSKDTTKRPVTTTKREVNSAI
Put plainly: FACS, 5 µg/ml antibody, 293T cells transfected with human B7-DC. As to the method: as §3

For test [14], the target named is T7, human B7-H1 expressed on cells. As to the kind of experiment: FACS competition: inhibition of biotinylated PD-1/Fc (10 ug/ml) binding to human B7-H1 on ES-2 cells. As to the method:
Briefly, 50000 cells/well were plated in 50 μl of PBS into wells of a 384-well tissue culture plate (Corning Costar, catalog #3712). Next, 50 μl/well of a diluted monoclonal antibody was added at final concentration of […], 0.00016 nM and plates were incubated at 4 C for 1 hour. […] Cells were washed once and 100 μl/well of Cy5-conjugated streptavidin was added and plates were incubated at 4 C for 15 min before being washed again with PBS containing 2% FCS and being read on a FACSCalibur instrument.

Test [15] has the same target. As to the kind of experiment: FACS, 5 µg/ml antibody, 293T cells transfected with human B7-H1. As for the experimental part: as §3
Test [16] addresses T9, mouse B7-H1 on J558 cells. Put plainly: FACS on J558 cells expressing mouse B7-H1. As for the experimental part:
as §3

The target of test [17] is T10, human B7-DC on 293T cells. As to the kind of experiment: FACS on 293T cells transfected with human B7-DC. As for the experimental part: as §3

T8 sequence (G7PSE7 entry or part of it): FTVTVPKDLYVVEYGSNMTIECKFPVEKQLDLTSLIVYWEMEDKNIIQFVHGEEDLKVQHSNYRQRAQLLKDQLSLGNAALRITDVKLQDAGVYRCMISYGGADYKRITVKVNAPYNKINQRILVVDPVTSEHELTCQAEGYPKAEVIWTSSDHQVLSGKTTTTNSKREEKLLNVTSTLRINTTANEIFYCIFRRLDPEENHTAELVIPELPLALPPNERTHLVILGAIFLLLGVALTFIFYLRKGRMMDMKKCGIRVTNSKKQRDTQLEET
T7 sequence (Q9NZQ7 19-290): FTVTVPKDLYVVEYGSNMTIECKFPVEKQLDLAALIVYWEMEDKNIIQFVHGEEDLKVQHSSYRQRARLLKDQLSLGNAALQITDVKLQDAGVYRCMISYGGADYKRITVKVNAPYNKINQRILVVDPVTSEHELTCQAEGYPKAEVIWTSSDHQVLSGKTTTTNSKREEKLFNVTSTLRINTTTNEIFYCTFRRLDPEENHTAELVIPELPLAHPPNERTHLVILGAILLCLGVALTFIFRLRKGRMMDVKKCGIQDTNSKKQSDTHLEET
T9 sequence (Q9EP73 19-290): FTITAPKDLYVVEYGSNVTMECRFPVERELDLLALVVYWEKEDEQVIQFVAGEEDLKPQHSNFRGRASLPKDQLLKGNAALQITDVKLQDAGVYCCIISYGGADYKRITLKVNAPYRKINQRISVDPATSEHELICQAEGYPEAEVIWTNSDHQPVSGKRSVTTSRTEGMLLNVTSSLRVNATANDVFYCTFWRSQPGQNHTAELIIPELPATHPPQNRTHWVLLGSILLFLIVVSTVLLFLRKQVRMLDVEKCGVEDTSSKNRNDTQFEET
T4 sequence (P10747 19-152): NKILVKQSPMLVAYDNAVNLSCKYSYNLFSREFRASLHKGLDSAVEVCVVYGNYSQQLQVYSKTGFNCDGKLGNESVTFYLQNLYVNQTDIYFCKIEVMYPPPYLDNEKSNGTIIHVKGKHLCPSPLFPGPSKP
T6 sequence (Q9EP73 19-239): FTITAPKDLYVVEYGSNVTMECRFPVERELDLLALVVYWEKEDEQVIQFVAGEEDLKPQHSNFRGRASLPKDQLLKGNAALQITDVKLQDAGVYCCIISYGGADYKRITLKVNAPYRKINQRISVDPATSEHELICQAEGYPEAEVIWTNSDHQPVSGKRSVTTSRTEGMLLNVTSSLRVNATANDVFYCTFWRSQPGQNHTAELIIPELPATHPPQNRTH
T1 sequence (Q15116 25-170): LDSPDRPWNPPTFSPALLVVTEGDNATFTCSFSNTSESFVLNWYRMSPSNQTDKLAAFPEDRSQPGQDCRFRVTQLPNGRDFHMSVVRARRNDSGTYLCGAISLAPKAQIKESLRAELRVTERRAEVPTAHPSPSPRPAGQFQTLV

B1: 2.9D10 in the IgG1-TM format (antibody, V domains shown)
VH: EVQLVESGGGLVQPGGSLRLSCAASGFTFSSYWMSWVRQAPGKGLEWVANIKQDGGEQYYVDSVKGRFTISRDNAKNSLYLQMNSLRAEDTAVYYCARDWNYGYYDMDVWGQGTTVTVSS
VL: EIVLTQSPGTLSLSPGERATLSCRASQSVSSNYLAWFQQKPGQAPRLLIFGTSSRATGIPDRFSGSGSGTDFTLTISRLEPEDFAVYYCQQYGSSIFTFGPGTKVDIK
notes: Recombinant human IgG1-TM (IgG1 with L234F, L235E, P331S), kappa; also called 2.9D10 IgG1-TM
For B1, the binding result in test [1], in test [2], in test [3], in test [4], in test [5] and in test [6] was “no binding (tested: 100 nM)” in each case.

B2: 3.18G1 (antibody, V domains shown)
VH: EVQLLESGGDLVQPGGSLRLSCAASGFTFNSYAMSWVRQAPGKGLEWVSTISGSGGFTFSADSVKGRFTISRDNSKNTLFLQMNSLRVEDSAVYSCAKVLVGFNNGCWDYWGQGTLVTVSS
VL: SYVLTQPPSVSVAPGQTARITCGGNNIGSKSVHWYQQKPGQAPVLVVYDDSDRPSGIPERFSGSNSGNTATLTISRVEAGDEADYYCQVWDSSNDHVVFGGGTKLTVL
notes: also called mAb 3.18G1
The IC50 is the point on the concentration scale where inhibition reaches its midpoint. On to B2, for which the “PD1-Fc binding to CHO-huB7-H1 cells (% of max)” value in [7] is 5 % of max. Also, the geo mean in [8] amounted to 94.6; in [11] it was 45; in test [12], 3.2; in test [13] it was 9.7; in [15], 1540. For the same molecule, the Count in test [9] turned out to be 21; in test [10] it was 66. Also, the FL1 in test [9] turned out to be 10900; in test [10] it was 10300. Besides, the results for the “FL1 × count” value in test [9] and in [10] were 228000 and 682000, respectively. Also, in test [14], the IC50 was 0.14 nM. Further, the binding result in test [16] and in test [17] was “no binding (tested: 5 µg/ml)” each time.
